# Experimental data as given in patent US20250152742A1, “COMPOSITIONS AND METHODS FOR NEUROLOGICAL DISEASES” (Trames Bio, Inc., priority 2022, published 2025).
# Positions count from the first letter of the chain named. Numbers in names are those of the source.
# B1: CODA536: engineered receptor: L131D, S172D in SEQ ID NO: 33 (protein)
# chain: MRCSPGGVWLALAASLLHVSLQGEFQRKLYKELVKNYNPLERPVANDSQPLTVYFSLSLLQIMDVDEKNQVLTTNIWLQMSWTDHYLQWNVSEYPGVKTVRFPDGQIWKPDILLYNSADERFDATFHTNVDVNSSGHCQYLPPGIFKSSCPMDLKNFPMDVQTCKLKFGSWDYGGWSLDLQMQEADISGYIPNGEWDLVGIPGKRSERFYECCKEPYPDVTFTVTMRRRMGYYLIQMYIPSLLIVILSWISFWINMDAAPARVGLGITTVLTMTTQSSGSRASLPKVSYVKAIDIWMAVCLLFVFSALLEYAAVNFVSRQHKELLRFRRKRRHHKSPMLNLFQEDEAGEGRFNFSAYGMGPACLQAKDGISVKGANNSNTTNPPPAPSKSPEEMRKLFIQRAKKIDKISRIGFPMAFLIFNMFYWIIYKIVRREDVHNQ
# modifications: synthetic sequence of chimeric LGIC
# B2: CODA109: engineered receptor: S170T in SEQ ID NO: 33 (protein)
# chain: B1 chain with D131L, S170T, D172S
# modifications: synthetic sequence of chimeric LGIC
# Assays:
# [1] = test system: engineered receptors and wild type nAchRa7 expressed in HEK293T cells; test: High throughput electrophysiology (IonFlux HT/Mercury automated patch clamp), EC50; format: cell-based, human
# Experimental: To confirm the […] determined by plate reader as well as develop a better understanding of maximum current flow, the engineered receptors were subjected to high throughput electrophysiology system, as described below. For HEK293T studies, cDNAs encoding ion channels were cloned into pcDNA3.1 using standard recombination techniques. HEK293T cells from Clontech (Lenti-XTM 293T Cell Line) were cultured in DMEM supplemented with 10% FBS and 1% Pen/Strep to 40-50% confluence using standard cell culture protocols, transfected with ion channel plasmids at a concentration of 18 μg per 15 cm dish using Fugene 6, and grown for an additional 24 hours. Cells were then assayed on an electrophysiological system (IonFluxHT and/or Mercury, Fluxion Biosciences) in which dose-response relationships may be assessed through a microfluidics-based platform for establishing whole cell configurations. Ensemble plates were primed with extracellular buffer (140 mM NaCl, 5 mM KCl, 2 mM CaCl2), 1 mM MgCl2, 10 mM HEPES, and 10 mM glucose, pH 7.2 with NaOH, mOsm 310), intracellular buffer (145 mM CsCl, 2 mM CaCl2, 2 mM MgCl2, 10 mM HEPES, and 10 mM EGTA, pH 7.2 with CsOH, mOsm 305), as adapted from Lynagh and Lynch, and test compounds (stocks prepared fresh) diluted in extracellular buffer. Cells were then released from the plate with Accutase, centrifuged, resuspended in extracellular buffer, and loaded into Ensemble plates. Cells were then subjected to a standard protocol for priming, trapping, breaking, and establishing whole cell configuration, with cells held at −60 mV throughout the recording. After recording baseline, progressive doses of test compounds were applied using the IonFlux software to assess dose response relationships. Data were then analyzed off-line using custom Python scripts to convert data to .csv format, re-plot traces, and apply QC measurements to reject unstable recordings (i.e. thresholding based on access resistance and/or standard deviation in baseline, as well as artifact rejection). Peak currents were then calculated, and population data were fit using a 4-parameter logistic equation as described by the Hill Equation. Currents were measured on an automated patch clamp system (Fluxion Biosciences) following 1 second addition of drug and the EC50 values calculated are tabulated below in Table 22A and Table 22B below and Table 21A and Table 21B above (in Example 2).
# [2] = test system: engineered chimeric receptor SEQ ID NO: 33 and its mutants (human α7-nAChR ligand binding domain / human GlyRα1 ion pore domain) in Lenti-X 293T cells; test: YFP fluorescence quenching anion reporter plate reader assay (percent quench, EC50); format: cell-based; conditions: for YFP fluorescence quenching using Facinicline, 30 nM fac: ligand Facinicline 30 nM; for YFP fluorescence quenching using Facinicline, 300 nM fac: ligand Facinicline 300 nM; for YFP fluorescence quenching using Facinicline, 30 uM fac: ligand Facinicline 30 uM; for YFP fluorescence quenching using TC-6987, 1 uM tc6987: ligand TC-6987 1 uM; for YFP fluorescence quenching using TC-6987, 10 uM tc6987: ligand TC-6987 10 uM; for YFP fluorescence quenching using TC-6987, 500 uM tc6987: ligand TC-6987 500 uM; for YFP fluorescence quenching using CNL001 (percent quench): receptor named in row; for YFP fluorescence quenching using Varenicline, 3 nM var: ligand Varenicline 3 nM; for YFP fluorescence quenching using Varenicline, 30 nM var: ligand Varenicline 30 nM; for YFP fluorescence quenching using Varenicline, 300 nM var: ligand Varenicline 300 nM; for YFP fluorescence quenching using Varenicline, 500 nM var: ligand Varenicline 500 nM; for YFP fluorescence quenching using Varenicline, 1 uM var: ligand Varenicline 1 uM
# How it was run: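 Percent quench compares mean YFP signal over the final 10 s with the 15 s baseline before ligand, added in iodide-containing extracellular solution (pH 7.2). Cells were LX293T carrying a YFP anion reporter, transiently transfected with the channel construct; plates were preincubated 30 min at 37 °C.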
# [3] = 3 nM brd (TC-5619/Bradanicline)
# [4] = 30 nM brd (TC-5619/Bradanicline)
# [5] = 300 nM brd (TC-5619/Bradanicline)
molecule,measurement,setting,value
B1,fold increased potency towards AZD-0328 compared to wild type control receptor,[1]; ligand AZD-0328,at least 10 fold
same,fold increased potency towards RG-3487 compared to wild type receptor,[1]; ligand RG-3487,at least 10 fold
same,YFP fluorescence quenching using TC-5619/Bradanicline (percent quench),[2]; 1 nM brd (TC-5619/Bradanicline),−1.24%
same,YFP fluorescence quenching using TC-5619/Bradanicline (percent quench),[2]; [3],0.25%
same,YFP fluorescence quenching using TC-5619/Bradanicline (percent quench),[2]; 10 nM brd (TC-5619/Bradanicline),−2.57%
same,YFP fluorescence quenching using TC-6683 (percent quench),[2]; 30 nM TC-6683,−22.285%
same,YFP fluorescence quenching using TC-5619/Bradanicline (percent quench),[2]; [4],0.78%
same,YFP fluorescence quenching using ABT-126 (percent quench),[2]; 50 nM abt (ABT-126),−3.19%
same,YFP fluorescence quenching (percent quench),[2]; 100 nM CNL002,71.72%
same,YFP fluorescence quenching using ABT-126 (percent quench),[2]; 100 nM abt (ABT-126),7.58%
same,YFP fluorescence quenching using AZD-0328 (percent quench),[2]; 100 nM azd0328,51.44%
same,YFP fluorescence quenching using TC-5619/Bradanicline (percent quench),[2]; 100 nM brd (TC-5619/Bradanicline),4.51%
same,YFP fluorescence quenching using TC-6683 (percent quench),[2]; 300 nM TC-6683,−23.926%
same,YFP fluorescence quenching using ABT-126 (percent quench),[2]; 300 nM abt (ABT-126),−1.65%
same,YFP fluorescence quenching using AZD-0328 (percent quench),[2]; 300 nM azd0328,77.12%
same,YFP fluorescence quenching using TC-5619/Bradanicline (percent quench),[2]; [5],30.97%
same,YFP fluorescence quenching (percent quench),[2]; 1 uM CNL002,77.26%
same,YFP fluorescence quenching using ABT-126 (percent quench),[2]; 1 uM abt (ABT-126),31.29%
same,YFP fluorescence quenching using TC-5619/Bradanicline (percent quench),[2]; 1 uM brd (TC-5619/Bradanicline),44.41%
same,YFP fluorescence quenching using TC-6683 (percent quench),[2]; 3 uM TC-6683,−20.514%
same,YFP fluorescence quenching (percent quench),[2]; 10 uM ach (acetylcholine),−12.91%
same,YFP fluorescence quenching (percent quench),[2]; 30 uM CNL002,77.5%
same,YFP fluorescence quenching using TC-6683 (percent quench),[2]; 30 uM TC-6683,−3.078%
same,YFP fluorescence quenching using AZD-0328 (percent quench),[2]; 30 uM azd0328,79.26%
same,YFP fluorescence quenching using TC-6683 (percent quench),[2]; 100 uM TC-6683,7.37%
same,YFP fluorescence quenching (percent quench),[2]; 100 uM ach (acetylcholine),−20.88%
same,YFP fluorescence quenching (percent quench),[2]; 1 mM ach (acetylcholine),79.85%
same,YFP fluorescence quenching (percent quench),[2]; 3 mM ach (acetylcholine),79.98%
same,"YFP fluorescence quenching using Facinicline, 30 nM fac",[2],24.15
same,"YFP fluorescence quenching using Facinicline, 300 nM fac",[2],80.17
same,"YFP fluorescence quenching using Facinicline, 10 uM fac",[2]; ligand Facinicline 10 uM,81.34
same,"YFP fluorescence quenching using Facinicline, 30 uM fac",[2],79.9
same,"YFP fluorescence quenching using TC-6987, 1 uM tc6987",[2],−18.24
same,"YFP fluorescence quenching using TC-6987, 10 uM tc6987",[2],−23.06
same,"YFP fluorescence quenching using TC-6987, 500 uM tc6987",[2],−19.3
B2,YFP fluorescence quenching using CNL001 (percent quench),"[2]; 1 nM CNL001, first column so headed",19.755%
same,YFP fluorescence quenching using CNL001 (percent quench),"[2]; 1 nM CNL001, second column so headed",65.484%
same,YFP fluorescence quenching using TC-5619/Bradanicline (percent quench),[2]; [3],70.58%
same,YFP fluorescence quenching using CNL001 (percent quench),"[2]; 10 nM CNL001, first column so headed",79.024%
same,YFP fluorescence quenching using CNL001 (percent quench),"[2]; 10 nM CNL001, second column so headed",81.563%
same,YFP fluorescence quenching using TC-5619/Bradanicline (percent quench),[2]; [4],80.71%
same,YFP fluorescence quenching using CNL001 (percent quench),"[2]; 50 nM CNL001, first column so headed",81.926%
same,YFP fluorescence quenching using CNL001 (percent quench),"[2]; 50 nM CNL001, second column so headed",83.092%
same,YFP fluorescence quenching using ABT-126 (percent quench),[2]; 50 nM abt (ABT-126),55.83%
same,YFP fluorescence quenching using CNL001 (percent quench),"[2]; 100 nM CNL001, first column so headed",83%
same,YFP fluorescence quenching using CNL001 (percent quench),"[2]; 100 nM CNL001, second column so headed",83.811%
same,YFP fluorescence quenching (percent quench),[2]; 100 nM CNL002,73.48%
same,YFP fluorescence quenching using ABT-126 (percent quench),[2]; 100 nM abt (ABT-126),68.89%
same,YFP fluorescence quenching using AZD-0328 (percent quench),[2]; 100 nM azd0328,84.01%
same,YFP fluorescence quenching using ABT-126 (percent quench),[2]; 300 nM abt (ABT-126),72.52%
same,YFP fluorescence quenching using AZD-0328 (percent quench),[2]; 300 nM azd0328,87.08%
same,YFP fluorescence quenching using TC-5619/Bradanicline (percent quench),[2]; [5],80.66%
same,YFP fluorescence quenching using CNL001 (percent quench),"[2]; 1 uM CNL001, first column so headed",81.834%
same,YFP fluorescence quenching using CNL001 (percent quench),"[2]; 1 uM CNL001, second column so headed",83.858%
same,YFP fluorescence quenching (percent quench),[2]; 1 uM CNL002,70.03%
same,YFP fluorescence quenching using ABT-126 (percent quench),[2]; 1 uM abt (ABT-126),70.96%
same,YFP fluorescence quenching (percent quench),[2]; 10 uM ach (acetylcholine),82.91%
same,YFP fluorescence quenching (percent quench),[2]; 30 uM ach (acetylcholine),82.53%
same,YFP fluorescence quenching using AZD-0328 (percent quench),[2]; 30 uM azd0328,87.27%
same,YFP fluorescence quenching (percent quench),[2]; 50 uM ach (acetylcholine),82.11%
same,YFP fluorescence quenching (percent quench),[2]; 100 uM ach (acetylcholine),83.68%
same,YFP fluorescence quenching (percent quench),[2]; 1 mM ach (acetylcholine),69.89%
same,YFP fluorescence quenching (percent quench),[2]; 3 mM ach (acetylcholine),78.12%
same,"YFP fluorescence quenching using Facinicline, 30 nM fac",[2],76.45
same,"YFP fluorescence quenching using Facinicline, 100 nM fac",[2]; ligand Facinicline 100 nM,82.45
same,"YFP fluorescence quenching using Facinicline, 300 nM fac",[2],71.09
same,"YFP fluorescence quenching using Facinicline, 30 uM fac",[2],69.41
same,"YFP fluorescence quenching using TC-6987, 1 uM tc6987",[2],71.45
same,"YFP fluorescence quenching using TC-6987, 10 uM tc6987",[2],71.04
same,"YFP fluorescence quenching using TC-6987, 500 uM tc6987",[2],66.2
same,"YFP fluorescence quenching using Varenicline, 3 nM var",[2]; first column,−20.96
same,"YFP fluorescence quenching using Varenicline, 3 nM var",[2]; second column,−19.953
same,"YFP fluorescence quenching using Varenicline, 30 nM var",[2]; first column,−16.094
same,"YFP fluorescence quenching using Varenicline, 30 nM var",[2]; second column,−21.502
same,"YFP fluorescence quenching using Varenicline, 300 nM var",[2]; first column,64.373
same,"YFP fluorescence quenching using Varenicline, 300 nM var",[2]; second column,71.198
same,"YFP fluorescence quenching using Varenicline, 500 nM var",[2]; first column,71.892
same,"YFP fluorescence quenching using Varenicline, 500 nM var",[2]; second column,73.53
same,"YFP fluorescence quenching using Varenicline, 1 uM var",[2]; first column,75.461
same,"YFP fluorescence quenching using Varenicline, 1 uM var",[2]; second column,78.578
